Results as given in the supplement of paper PMC9170038.

System: MS2 coat protein
Experiment: apparent KD of MS2 coat protein; designed switch direction (-1 OFF switch, 1 ON switch): -1; higher = weaker reporter binding
Procedure, shortened: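 Transcription of designed RNA switches on Illumina chips was done by stalled E. coli RNA polymerase. SNAP-549-labelled MS2 coat protein was then titrated in doubling steps from 0.7 or 1.5 nM to 3 µM, with steps of 0.8–1.5 h at the lowest and 10–20 min at the highest concentration. The per-design median over clusters of curve-fitted normalised fluorescence is reported as apparent KD.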

[1] = input ligand: microRNA oligo, concentration not stated
[2] = Eterna round: R95, input ligand: FMN 200 uM
[3] = Eterna round: R95, input ligand: microRNA oligo, concentration not stated
[4] = Eterna round: R95, input ligand: none

| Sequence | apparent KD of MS2 coat protein (input ligand: FMN 200 uM) [nM] | apparent KD of MS2 coat protein [1] [nM] | apparent KD of MS2 coat protein (input ligand: none) [nM] | apparent KD of MS2 coat protein [2] [nM] | apparent KD of MS2 coat protein [3] [nM] | apparent KD of MS2 coat protein [4] [nM] |
| --- | --- | --- | --- | --- | --- | --- |
| AGAUGCUCAAGUCGACAUGAGGAUCACCCAUGUACAAUUAACGAGGAUAUCCGAGAUAAAUAAUAGGAGAAGGCGUGAUCAUGA [Mat - Exclusion NG 3 - Mod of JL - D54] (Eterna round: R96, puzzle: Exclusion NG 3) | 66.2 | 110 | 470 |  |  |  |
| GAUUAUGCGAGCUUUAGGGACAUGAGGAUCACCCAUGUUCGUCUUAUUAGUCUAGGUGCGCUAACAUACCUAAAUCU [JMF 50] (puzzle: Sensor v3, turn-off variant 1) |  |  |  | 20.7 | 35.4 | 21.6 |
| AACCUGAGGCUUUGCUUUAGGUUUACAUGAGGAUCACCCAUGUAGGAUAUGGUAGGCAUAGCUUACCAGAAGGACAUGAAAAUU [Mat - Exclusion NG 3 - Mod of JL - D29] (Eterna round: R96, puzzle: Exclusion NG 3) | 293 | 34.1 | 43.3 |  |  |  |
| AGGAAUGAAGGAUAUACAUGAGGAUCACCCAUGUAAAACAAGAGAUUUGAUGUAUAAUGUAGAAGGUCAAGAAG [JR_Exclusion3_Sub003] (puzzle: Exclusion 3) |  |  |  | 25.2 | 30.5 | 35.5 |
| AAUAACGAGCCGAUCCUCCACAUGAGGAUCACCCAUGUGUUCGUCUUGUAAAGUACUAUCACGAAAGUGAUAGUACA [mod jandersonlee] (Eterna round: R97, puzzle: Sensor, turn-off variant 1) | 1100 |  | 1040 |  |  |  |
| AAAUUAGCAAGUAGAUCCGACAUGAGGAUCACCCAUGUAAUCUAAUAUUACGCUGCAUGAGAGUGCGCUCGUCUUAG [Sensor-V1 #16] (Eterna round: R97, puzzle: Sensor, turn-off variant 1) | 211 |  | 238 |  |  |  |
| GUGUGCAGAGGAUAUACAUAGGAAAAUAAAAGAGAAGUGGGACAUGAGGAUCACCCAUGUAGAAGGCUGAGUGU [Excluse me!! 22 - Jieux - Exclusion 2] (puzzle: Exclusion 2) |  |  |  | 89.9 | 73.7 | 72.8 |
| GGAGCAAGUGUCAGGAUAUCGUGGUCGAUAGAUCACGAGAAGGGACAUGAGGAUCACCCAUGUGCCUCAGCUCC [Mat - Exclusion 4 - Eli Mod - D60] (Eterna round: R97, puzzle: Brourd's mod of Exclusion 4) | 736 |  | 214 |  |  |  |
| AGUACUAACUCGAUAGUGUUAGUACAAUAAGCUUGUGAAACAUGAGGAUCACCCAUGUCCUCAUAAGCUCGUCUUAU [salish99_TOv2_r3_1004] (puzzle: Sensor v3, turn-off variant 2) |  |  |  | 16.9 | 726 | 15.4 |
| GAAAACUCAGGAUAUGCGUGAGAAAACUUGAGGAUCACCCAAGUGUGGUCCCGAUCUAAAGCAGAAGGGAGCAAAA [Lebidiraus] (Eterna round: R97, puzzle: Exclusion 5) | 1770 |  | 353 |  |  |  |
| GUCACAUGGGUGUAGAAUCACAUGAGGAUCACCCAUGUGACUAACAAGCUUUUUGCUCGUCUUAUGUCUAUGUGAAU [Stov1/17-A2] (Eterna round: R97, puzzle: Sensor, turn-off variant 1) | 23.3 |  | 37.2 |  |  |  |
| AAAGUGUGAGGAUAUCCGGGACUGGGCCGGGAGGUUCGGAAGGAGAAGGCACAUGAGGAUCACCCAUGUAACGG [Excls4-X] (puzzle: Exclusion 4) |  |  |  |  | 46.9 |  |
| AGUAACUAUCACGAAAGUGAUAGUUACACAAGCAGUGAAACAUGAGGAUCACCCAUGUCCUCAUUAGCUCGUCUUAU [Sensor 3 - 32] (puzzle: Sensor v3, turn-off variant 2) |  |  |  | 117 | 729 | 164 |
| CCACGUCCGUACGUGUACUUGUCUCCUGUGUGCCCGGGUACAUGAGGAUCACCCAUGUCUGUGCUCGCCUUCUGCCC [JR_Sensorv2_tov2_Sub724] (Eterna round: R96, puzzle: Sensor v2, turn-off variant 2) | 126 | 84.7 | 165 |  |  |  |
| UAUCGGGACUGAGGAUAUUCGUUCGAACACGAAGAAGAAGGUAGUGUCAGGGACAUGAGGAUCACCCAUGUGAACUCAGUCCUA [JL ViennaUCT Erinle mod] (Eterna round: R96, puzzle: Exclusion NG 1) | 38.3 | 33.7 | 38.3 |  |  |  |
| UUUUAGAGAGGAUAUAUAAUGUGAAACAUGAGGAUCACCCAUGUAAUAUUAUGGAUGUAAAUAGAAGGCUCAAUUA [Mat - Exclusion 5 - JL mod - D13] (puzzle: Exclusion 5) |  |  |  | 28.5 | 30.4 | 26.3 |

| Sequence | apparent KD of MS2 coat protein (input ligand: FMN 200 uM) [nM] | apparent KD of MS2 coat protein [1] [nM] | apparent KD of MS2 coat protein (input ligand: none) [nM] | apparent KD of MS2 coat protein [2] [nM] | apparent KD of MS2 coat protein [3] [nM] | apparent KD of MS2 coat protein [4] [nM] |
| --- | --- | --- | --- | --- | --- | --- |
| ACGCUACAUGAGGAUCACCCAUGUGAGGAUAUUUGAUCCAGGCAGCAAAGGAUGAUACGGAGAAGGUACAUGGU [Eternabot (L1) Solution 35] (Eterna round: R97, puzzle: Exclusion 1) | 265 |  | 147 |  |  |  |
| CUGGUCCGAGGAUAUAUUAUGUGAAACAUGAGGAUCACCCAUGUAAUAUGAUGGAUGUAAAUAGAAGGCGGGCUAG [Mat - Exclusion 5 - JL mod - D26] (puzzle: Exclusion 5) |  |  |  | 30.8 | 23.2 | 24.3 |
| AGAUCUAGGACAGGAUAUACAGAUGGCUUCAUCGAAGAUGAAGCCAUUACAUGAGGAUCACCCAUGUAGAAGGGUCCUAGAUCA [Omei Exc(NG) 2Av5] (Eterna round: R96, puzzle: Exclusion NG 2) | 17.7 | 12 | 14.2 |  |  |  |
| AGUUCCUUUGUGAGGAUAUCAAUGAUAUAACUGUAUGAGAAGGCACAUGAGGAUCACCCAUGUUUGUUGCUGCA [Eternabot (L1) Solution 78] (Eterna round: R97, puzzle: Brourd's mod of Exclusion 4) | 106 |  | 20.1 |  |  |  |
| CUCAAACAUGAGGAUCACCCAUGUGAGGAUAUGAUGCGAUCGUCGAAAGACGAUAGCAUCAGAAGGUACAAAUG [Fiskers Ex 1 - 23] (puzzle: Exclusion 1) |  |  |  | 37.7 | 37.9 | 54.2 |
| CGAUGCUCGAAUCCACAUGAGGAUCACCCAUGUCGAGUUAGCGAGGAUAUCGGAGACACAUAGUAUGAGAAGGCGCGAACCUGA [Ex NG3 #23] (Eterna round: R96, puzzle: Exclusion NG 3) | 15.5 | 10.5 | 12.1 |  |  |  |
| AAGAUUAUUUCAGGAUAUAGAUUGAUGAUCGUACUAGAAGGGAAAACACAGUACAUGAGGAUCACCCAUGUUCAUGUAGUGCCA [Eternabot solution 29] (Eterna round: R96, puzzle: Exclusion NG 1) | 17.2 | 13.4 | 17.4 |  |  |  |
| GAUCAACAUGAGGAUCACCCAUGUUAGGAUAUGUCCACGUGGCAUAGGACCACGUGUGGCAGAAGGAGCGUUAA [Eternabot (L2) Solution 52] (Eterna round: R97, puzzle: Exclusion 1) | 37.9 |  | 37.4 |  |  |  |
| AUAAUGUGAGGAUAUCACGCCCAAAUAAAUGGGCGAAAUAAUGAGAAGGCACAUGAGGAUCACCCAUGUCCGAA [EX4 A.25] (Eterna round: R97, puzzle: Exclusion 4) | 180 |  | 33.5 |  |  |  |
| CUAAAUCAUGUAGGAUAUGCGUGGCAAAGCUAUGCAGAAGGACAUGAGGAUCACCCAUGUCAUUCCGUCUGGAGACAGACGGGA [Mat - Exclusion NG 1 - Mod of JL - D54] (Eterna round: R96, puzzle: Exclusion NG 1) | 182 | 20.7 | 25 |  |  |  |
| AAGAAUCUAGGAUAUUAGCGGGCCUACAUGAGGAUCACCCAUGUCGUGUCGCGGGUAUGCUGAGAAGGAGAGCACA [EX5 B.5] (Eterna round: R97, puzzle: Exclusion 5) | 16.3 |  | 16.3 |  |  |  |
| AGUACUAACACGCAAGUGUUAGUACAAUAAGCUUGUGAAACAUGAGGAUCACCCAUGUCCUCAUAAGCUCGUCUUAU [salish99_TOv2_r3_027] (puzzle: Sensor v3, turn-off variant 2) |  |  |  | 16.2 | 490 | 16.5 |
| UGCUACGGAGGAUAUACAUGAGGAUCACCCAUGUGAUAGAUUAUCGCGAAAGCGUAAUGUAGAAGGCCGUAGCU [jl-ex3-4.11 jl mod] (Eterna round: R97, puzzle: Exclusion 3) | 556 |  | 54.4 |  |  |  |
| AUUUUGUGAGGAUAUCAGGUGUGCUAGCGUACUGGUACAUCUGAGAAGGCACAUGAGGAUCACCCAUGUUUAUU [Mat - Exclusion 4 - Mod of JL - D39] (puzzle: Exclusion 4) |  |  |  |  | 25.6 |  |
| CACAUGUCAGGAUAUGGUCAAGACACAGAAUUAGCUGCGAGCCAGAAGGGACAUGAGGAUCACCCAUGUUCCUG [Eternabot (L1) Solution 58] (Eterna round: R97, puzzle: Exclusion 4) | 19.5 |  | 16.3 |  |  |  |
| CCGCAGCGGUAGGAUAUUAUGACGUCAUGGGCAUAAGAAGGACCGACAUGAGGAUCACCCAUGUUGGGUGCCCG [EX6 C.24] (Eterna round: R97, puzzle: Exclusion 6) | 33.7 |  | 21.7 |  |  |  |
